From PMC3485013, “Rubber Elongation Factor (REF), a Major Allergen Component in Hevea brasiliensis Latex Has Amyloid Properties” (PLoS ONE, 2012)

Target: the molecule itself
Assay: aggregation of the purified protein in solution (visible precipitation; aggregates examined by Congo red, CD, ATR-FTIR, TEM, WAXS); protein alone at 20 µM in 1x PBS pH 7.4, 37°C, 3 h, kept at 4°C (legend of Figure 2C: 50 µM)

B1: Rubber Elongation Factor (REF), recombinant 6His-REF (natural protein, Hevea brasiliensis, UniProt P15252 1-138, looked up)
chain: MAEDEDNQQGQGEGLKYLGFVQDAATYAVTTFSNVYLFAKDKSGPLQPGVDIIEGPVKNVAVPLYNRFSYIPNGALKFVDSTVVASVTIIDRSLPPIVKDASIQVVSAIRAAPEAARSLASSLPGQTKILAKVFYGEN
notes: gene synthesised after codon optimisation from GenBank X56535; No removal of the tag is described, and the same preparation is detected by anti-His antibody in the lipid dot blots; also called Hevb1; HbREF; source: E. coli BL21 (DE3) pLysS Gold, inclusion bodies, purified (Ni-NTA in 8 M urea, dialysed against buffer A); not shown: His6, N-terminal, kept
binding result: binds
